The values that follow come from US20020086007A1, “Angiogenesis-inhibiting peptides and proteins and methods of use” (priority 2000, published 2002).

Test [1] deals with cultured endothelial cells. Particulars: cited from earlier work.
Test [2] has as its system HUVECs. As to the kind of experiment: Localization of endostatin into cells and nuclei (cytosol/nuclei extract, immunoprecipitation, Western blot). The following applies: 100 ug/ml recombinant endostatin, 30 minutes; FIG. 4. It is filed as cell-based, human. The protocol: 3 T-75 of HUVECs grown at regular growth condition (about 95% confluent) were treated with 100 ug/ml recombinant endostatin for 30 minutes and rinsed with warm 1XPBS and then trypsinized. The control cells from 3 T-75 were the HUVECs treated with the same concentration of endostatin for 1 second. The trypsinized cells were then washed with cold PBS twice. About 40 μl of cell pellet was obtained from all three T-75 flasks. The cytosol extract and nuclei extract was obtained using a nuclei extraction kit (Pierce Company, Rockford, Ill.). The rabbit polyclonal antibodies against human endostatin (Cytimmune Sciences, College Station, Md.) were used to immunoprecipite endostatin protein present in the extract. The immunoprecipited elution was analyzed on Western blot probed with either the same polyclonal antibodies or the mAb 96-2. […] (FIG. 4).
On the technique in general: Immunoblotting shows a protein as a band on a membrane.

The test system of test [3] is tumor induced angiogenesis. The following applies: systemic therapy; cited from earlier work.
Test [4] relates to HUVECs. As to the kind of experiment: Staining of fixed endothelial cells with Alexa-labeled endostatin. Particulars: HUVECs grown at 5 ng/ml VEGF, 40 μg/μl, 30 mins, FIG. 7. The format is cell-based, human. The protocol:
HUVECs grown at 5 ng/ml VEGF were fixed in 3.7% formaldehyde for 5 mins. and cold methanol for 5 mins. and then stained with […] Alexa-labeled endostatin for 30 mins.

The test system of the next test is Live HUVECs cells. As to the kind of experiment: Staining of live endothelial cells with Alexa-labeled endostatin (fluorescence microscopy). It is filed as cell-based, human. Particulars: 8 ug/ml, 5, 15, 30 and 60 minutes; FIG. 6. How it is done:
Live HUVECs cells were treated with 8 ug/mI Alexa-labeled endostatin for 5 minutes, 15 minutes, 30 minutes and 60 minutes, land washed with M-200 medium and fixed in 3.7% formaldehyde for 5 minutes and cold methanol for 5 minutes. Alexa-labeled endostatin can be visualized under the fluorescent microscope.

B1: endostatin: antiangiogenic fragment of a most C-terminal non-collagenous region of a collagen protein (SEQ ID NO: 1) (protein)
chain: HSHRDFQPVLHLVALNSPLSGGMRGIRGADFQCFQQARAVGLAGTFRAFLSSRLQDLYSIVRRADRAAVPIVNLKDELLFPSWEALFSGSEGPLKPGARIFSFDGKDVLRHPTWPQKSVWHGSDPNGRRLTESYCETWRTEAPSATGQASSLLGGRLLGQSAASCHHAYIVLCIENSFMTASK
As for B1, in test [1], the “inhibition of endothelial proliferation and angiogenesis” value was “potent and specific inhibitor”. The “localization into cell and nuclei” value in the test on HUVECs [2] is “able to localize into HUVEC cell and nuclei”. For the same molecule, the “suppression of tumor induced angiogenesis” value in test [3] is reported as “nearly complete suppression”.

B2: Alexa-labeled endostatin: endostatin labeled with Alexa dye, visualized under the fluorescent microscope (conjugate, UniProt P39060 1572-1754, looked up)
Endostatin: B1 chain
modifications: Endostatin Alexa dye label
notes: endostatin labeled with Alexa dye, visualized under the fluorescent microscope
Consider B2, for which, in the test with HUVECs [4], the “staining of fixed cells” value is “stained not only the cytoskeleton network, but also stained the nuclei”. Besides, the “staining of live cells” value in the test with Live HUVECs cells is “stains the cytosol and nuclei even as early as at the 5 minute time point”.
